Target: T1, recombinant Pdr6 (S. cerevisiae, UniProt P32767 1-1081)
T1 construct: Pdr6/Kap122, S. cerevisiae; also called Kap122; source: E. coli NEB express, purified (Ni2+ chelate beads)
T1 sequence (looked up): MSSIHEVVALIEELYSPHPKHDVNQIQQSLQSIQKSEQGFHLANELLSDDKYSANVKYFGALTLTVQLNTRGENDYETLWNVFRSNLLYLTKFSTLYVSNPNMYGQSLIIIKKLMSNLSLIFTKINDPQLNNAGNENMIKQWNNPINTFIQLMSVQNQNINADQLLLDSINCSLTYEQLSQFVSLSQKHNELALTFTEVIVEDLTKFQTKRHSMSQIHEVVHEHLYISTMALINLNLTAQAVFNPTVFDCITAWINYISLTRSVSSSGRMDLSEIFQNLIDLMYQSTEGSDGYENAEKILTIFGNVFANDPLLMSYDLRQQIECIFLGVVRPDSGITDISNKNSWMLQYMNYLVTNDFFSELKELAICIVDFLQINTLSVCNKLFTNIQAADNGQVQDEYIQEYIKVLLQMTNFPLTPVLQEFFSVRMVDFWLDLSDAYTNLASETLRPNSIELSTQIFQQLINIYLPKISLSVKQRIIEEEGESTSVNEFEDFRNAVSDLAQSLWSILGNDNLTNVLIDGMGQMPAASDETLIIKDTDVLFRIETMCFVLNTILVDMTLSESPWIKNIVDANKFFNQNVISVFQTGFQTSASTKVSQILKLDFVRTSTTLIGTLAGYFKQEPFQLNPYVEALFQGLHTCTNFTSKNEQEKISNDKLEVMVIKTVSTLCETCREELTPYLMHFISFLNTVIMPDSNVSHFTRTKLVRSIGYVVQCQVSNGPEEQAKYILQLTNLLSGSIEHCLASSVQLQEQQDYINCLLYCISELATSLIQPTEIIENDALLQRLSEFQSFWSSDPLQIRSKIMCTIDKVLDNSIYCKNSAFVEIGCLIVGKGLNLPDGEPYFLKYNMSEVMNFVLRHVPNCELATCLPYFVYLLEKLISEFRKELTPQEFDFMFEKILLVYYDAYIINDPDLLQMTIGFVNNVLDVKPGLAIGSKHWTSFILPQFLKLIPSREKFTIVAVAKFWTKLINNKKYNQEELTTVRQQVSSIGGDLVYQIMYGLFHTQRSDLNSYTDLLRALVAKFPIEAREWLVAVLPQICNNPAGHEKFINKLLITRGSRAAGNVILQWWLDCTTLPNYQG
Experiment: pull-down; 1.5 µM H14-ZZ-NEDD8-Ubc9 as bait, 3 µM recombinant Pdr6, with or without 3 µM RanGTP and 3 µM eIF5A; anti-ZZ/ED affibody matrix, elution by NEDP1 tag cleavage; 1 h at 4°, 45 mM Tris/HCl pH 7.5, 100 mM NaCl, 2 mM MgCl2, 5 mM DTT; SDS-PAGE/Coomassie
Details: both partners purified

binding result: binds
B1: H14-ZZ-NEDD8–tagged Ubc9 (enzyme, yeast (S. cerevisiae), UniProt P50623 1-157, looked up)
chain: MSSLCLQRLQEERKKWRKDHPFGFYAKPVKKADGSMDLQKWEAGIPGKEGTNWAGGVYPITVEYPNEYPSKPPKVKFPAGFYHPNVYPSGTICLSILNEDQDWRPAITLKQIVLGVQDLLDSPNPNSPAQEPAWRSFSRNKAEYDKKVLLQAKQYSK
notes: Ubc9, SUMO-conjugating E2 enzyme of yeast; Tag is cut by NEDP1 only at elution; also called immobilized Ubc9; source: E. coli NEB express, purified (Ni2+ chelate beads)

From paper PMC6548132, “Engineered SUMO/protease system identifies Pdr6 as a bidirectional nuclear transport receptor” (The Journal of Cell Biology, 2019)
